This is an account of results in paper PMC9891502 (PLOS Pathogens, 2023).

Test [1] addresses gB AD-2S1 peptide (human cytomegalovirus). In words: SPR. The conditions noted are these: both partners purified.
In test [2] the target is T1, full-length gB (Towne strain) expressed on HEK293T cells (Human cytomegalovirus strain Towne, UniProt P13201).
T1 construct: also called cell-associated gB
Description: flow cytometry on cells. More on the design: AUC of a 3-point dilution series: unit not given beside the values. The conditions noted are these: one partner purified. On the technique in general: A flow cytometer gives signals particle by particle.

Test [3] has as its target T2, gB AD-2S1 peptide (Human cytomegalovirus (HHV-5), gB …).
T2 chain: HRANETIYNTTLKYG
In words: ELISA; 384-well plates coated overnight at 4°C with 45 ng gB AD-2S1 peptide or gB ectodomain per well; mAbs in a 12-point 3-fold dilution from 1 μg/mL; detected with goat anti-human IgG-HRP; EC50. The conditions noted are these: both partners purified.

For test [4], the target named is T1, full-length gB (Towne strain) expressed …. Description: cell-based or functional assay.
Test [5] deals with gB AD-2S1 peptide (human cytomegalovirus). In words: SPR. Particulars: both partners purified. The source holds these as a separate data set.
The target in test [6] is T3, gB on whole CMV virions of strain TB40/E (Human cytomegalovirus strain TB40/E (gB …, UniProt P13201, strain)).
T3 construct: also called whole virion CMV strain TB40/E; source: whole TB40/E virions coated on the plate (33 PFU/well)
In words: ELISA. Particulars: one partner purified.

B1: TRL345 I8 (antibody, V domains shown)
VH: QVQLVESGGGVVQPGRSLRLSCAASGFTFSSYNMHWVRQAPGKGLEWVAVISNDGSNKYYADSVKGRFTISRDNSKNTLYLQMNSLRAEDTAVYYCARDGRSVGGFSGILDPWGQGTLVTVSS
VL: not shown
As a reminder, the Kd is the concentration at which binding is half-saturated. Broadly, the kon is a measure of how fast the partners come together. For B1, in the test with gB AD-2S1 peptide [1], binding was put at a Kd of 23.2 nM and the kon was 1.33e+08 M⁻¹ s⁻¹.

B2: TRL345 unmutated common ancestor (UCA) mAb (antibody, V domains shown)
VH: QVQLVESGGGVVQPGRSLRLSCAASGFTFSSYAMHWVRQAPGKGLEWVAVISYDGSNKYYADSVKGRFTISRDNSKNTLYLQMNSLRAEDTAVYYCARDGRSVGGFSGILDPWGQGTLVTVSS
VL: not shown
notes: also called TRL345 UCA; TRL345.UCA
Take B2: the “AUC of a 3-point dilution series” value in test [2] was 97.3 ± 21.2.

B3: I8 with VL S30G reverted to germline (antibody, V domains shown)
VH: QVQLVESGGGVVQPGRSLRLSCAASGFTFSSYNMHWVRQAPGKGLEWVAVISNDGSNKYYADSVKGRFTISRDNSKNTLYLQMNSLRAEDTAVYYCARDGRSVGGFSGILDPWGQGTLVTVSS
VL: not shown
As for B3, the binding result (in test [2]; in the test with gB AD-2S1 peptide [3]) was “binds” each time. In test [4], the “fold decrease in neutralization potency for CMV strain Towne against I8” value is 9 fold.

B4: I5 (antibody, V domains shown)
VH: QVQLVESGGGVVQPGRSLRLSCSASGFTFSDYNLHWVRQAPGKGLEWVAVISIDGSNKHHADSVKGRFTISRDNSKNTVNLQMNSLRAEDTAVYYCARDGRSVGGYSGILDPWGQGTLVTVSS
VL: EIVLTQSPATLSLSPGERATLSCRASQSVGSYLAWYQQKPGQAPRLLIYDASERATGIPARFSGSGSGTDFTLTISSLEPEDVAVYYCQQRSNWPPLTFGGGTKVEIK
notes: also called intermediate 5
In the test with gB AD-2S1 peptide [5], B4 displayed a Kd of 5.52 nM and a kon of 1.23e+08 M⁻¹ s⁻¹.

B5: TRL345 UCA with VH Y52aN (antibody, V domains shown)
VH: QVQLVESGGGVVQPGRSLRLSCAASGFTFSSYAMHWVRQAPGKGLEWVAVISNDGSNKYYADSVKGRFTISRDNSKNTLYLQMNSLRAEDTAVYYCARDGRSVGGFSGILDPWGQGTLVTVSS
VL: not shown
As for B5, the binding result in test [2] is “binds”.

B6: TRL345 lineage intermediate 8 (I8) mAb (antibody, V domains shown)
VH: QVQLVESGGGVVQPGRSLRLSCAASGFTFSSYNMHWVRQAPGKGLEWVAVISNDGSNKYYADSVKGRFTISRDNSKNTLYLQMNSLRAEDTAVYYCARDGRSVGGFSGILDPWGQGTLVTVSS
VL: not shown
For B6, the binding result in test [6] was “binds”. In addition, the “AUC of a 3-point dilution series” value in test [2] is 133 ± 33.3. In the test with gB AD-2S1 peptide [3], the “fold increase in ELISA binding magnitude against the UCA” value was found to be 151 fold. Further, in test [4], the “neutralization IC50, CMV strain AD169rUL131-GFP (gB genotype 2) on MRC-5 fibroblasts” value turned out to be 0.83 µg/mL and the “neutralization IC50, CMV strain Towne (gB genotype 1) on MRC-5 fibroblasts” value stood at 2.78 µg/mL.

B7: I8 with VH A33N reverted to germline (antibody, V domains shown)
VH: QVQLVESGGGVVQPGRSLRLSCAASGFTFSSYAMHWVRQAPGKGLEWVAVISNDGSNKYYADSVKGRFTISRDNSKNTLYLQMNSLRAEDTAVYYCARDGRSVGGFSGILDPWGQGTLVTVSS
VL: not shown
For the molecule B7, the results for the other (in test [2]; in the test with gB AD-2S1 peptide [3]) were 1.4 fold and 395 fold, respectively.

B8: I8 with VH Y52aN reverted to germline (antibody, V domains shown)
VH: QVQLVESGGGVVQPGRSLRLSCAASGFTFSSYNMHWVRQAPGKGLEWVAVISYDGSNKYYADSVKGRFTISRDNSKNTLYLQMNSLRAEDTAVYYCARDGRSVGGFSGILDPWGQGTLVTVSS
VL: not shown
With B8, the binding result (in test [2]; with gB AD-2S1 peptide [3]) was “binds” throughout.

B9: TRL345 UCA with VH A33N (antibody, V domains shown)
VH: QVQLVESGGGVVQPGRSLRLSCAASGFTFSSYNMHWVRQAPGKGLEWVAVISYDGSNKYYADSVKGRFTISRDNSKNTLYLQMNSLRAEDTAVYYCARDGRSVGGFSGILDPWGQGTLVTVSS
VL: not shown
For B9, the “fold increase in binding magnitude against the UCA” value was 2.5 fold in test [2] and 269 fold with gB AD-2S1 peptide [3].

B10: TRL345 UCA with VL S30G (antibody, V domains shown)
VH: QVQLVESGGGVVQPGRSLRLSCAASGFTFSSYAMHWVRQAPGKGLEWVAVISYDGSNKYYADSVKGRFTISRDNSKNTLYLQMNSLRAEDTAVYYCARDGRSVGGFSGILDPWGQGTLVTVSS
VL: not shown
For B10, the “fold increase in binding magnitude against the UCA” value in test [2] is 1.2 fold; with gB AD-2S1 peptide [3], 1.8 fold.

B11: TRL345 UCA with VH A33G (antibody, V domains shown)
VH: QVQLVESGGGVVQPGRSLRLSCAASGFTFSSYGMHWVRQAPGKGLEWVAVISYDGSNKYYADSVKGRFTISRDNSKNTLYLQMNSLRAEDTAVYYCARDGRSVGGFSGILDPWGQGTLVTVSS
VL: not shown
Turning to B11, the figures for the “fold increase in binding against the TRL345 UCA” value (in test [2]; in the test with gB AD-2S1 peptide [3]) were 1.1 fold and about 15 fold, respectively.

B12: TRL345 UCA (antibody, V domains shown)
VH: QVQLVESGGGVVQPGRSLRLSCAASGFTFSSYAMHWVRQAPGKGLEWVAVISYDGSNKYYADSVKGRFTISRDNSKNTLYLQMNSLRAEDTAVYYCARDGRSVGGFSGILDPWGQGTLVTVSS
VL: not shown
notes: also called unmutated common ancestor
With B12, in the test with gB AD-2S1 peptide [1], the Kd stood at 27.6 nM and the kon is 9.73e+07 M⁻¹ s⁻¹.

B13: TRL345 UCA with VL N53D (antibody, V domains shown)
VH: QVQLVESGGGVVQPGRSLRLSCAASGFTFSSYAMHWVRQAPGKGLEWVAVISYDGSNKYYADSVKGRFTISRDNSKNTLYLQMNSLRAEDTAVYYCARDGRSVGGFSGILDPWGQGTLVTVSS
VL: not shown
Take B13: the binding result in test [2] was “binds”.

B14: I8 with VL N53D reverted to germline (antibody, V domains shown)
VH: QVQLVESGGGVVQPGRSLRLSCAASGFTFSSYNMHWVRQAPGKGLEWVAVISNDGSNKYYADSVKGRFTISRDNSKNTLYLQMNSLRAEDTAVYYCARDGRSVGGFSGILDPWGQGTLVTVSS
VL: not shown
Regarding B14, the binding result (in test [2]; in the test with gB AD-2S1 peptide [3]) was “binds” throughout. Moreover, the “fold decrease in neutralization potency for CMV strain Towne against I8” value in test [4] came out at 2.5 fold.

B15: 3–25 UCA with VH A33N (antibody, V domains shown)
VH: QVQLVESGGGVVQPGRSLRLSCAASGFTFSSYNMHWVRQAPGKGLEWVAVISYDGSNKYYADSVKGRFTISRDNSKNTLYLQMNSLRAEDTAVYYCAREGYCSGGSCYSGQPDYWGQGTLVTVSS
VL: not shown
For B15, the other in test [2] turned out to be 4.4 fold.

B16: 3–25 UCA with VH A33G (antibody, V domains shown)
VH: QVQLVESGGGVVQPGRSLRLSCAASGFTFSSYGMHWVRQAPGKGLEWVAVISYDGSNKYYADSVKGRFTISRDNSKNTLYLQMNSLRAEDTAVYYCAREGYCSGGSCYSGQPDYWGQGTLVTVSS
VL: not shown
Regarding B16, the other in test [2] amounted to 1.4 fold.

B17: anti-gB AD-2 mAb 3-25 (antibody, V domains shown)
VH: QVQLVESGGGVVQPGRSLRLSCAASGFTFSNHGLHWVRQPPGKGLEWVAVVSKDGTNEHYADSVRGRFTISRDNSKNTLYLLMKSLRLEDTAVYYCAREGYCGDDRCYSGQPDYWGQGILVTVSS
VL: EIVLTQFPATLSLSPGERATLSCRASQSVGRYLAWYQQKPGQAPRLLIYDSSNRATGVPARFSGSGSGTDFTLSISSLEPEDFAVYFCQQRSHWPPLTFGGGTKVEIK
In the test with gB AD-2S1 peptide [1], B17 had a Kd of 4.42 nM and a kon of 1.49e+08 M⁻¹ s⁻¹.

B18: MAB316 (antibody, V domains shown)
VH: QVQLVQSGGGVVQPGRSLTLSCAASGFTFSGFSLHWVRQAPGKGLQWVAVISFDGNHKHFADSLKGRFTISRDNSKNTLYLQINDLRGEDTAVYYCARDGRAVDGFSGILDFWGQGTLVSVSS
VL: EIVMTQSPATLSLSPGERATLSCRASQSVGRYLTWFQQKPGQAPRLLIYDASERATGVPARFSGSGSGTDFTLTISSLEPEDFAVYYCQQRSNWPPLTFGGGTKVEIK
Regarding B18, in the test with gB AD-2S1 peptide [5], the dissociation constant (Kd) worked out at 2.96 nM and the kon was found to be 1.63e+08 M⁻¹ s⁻¹.

B19: MAB319 (antibody, V domains shown)
VH: QVQLVESGGGVVQPGRSLRLSCSASGFTFSDYNLHWVRQAPGKGLEWVAVISIDGSDKHHADSVKGRFTVSRDNSKNTVSLQMDSLRPEDTAVYYCARDGRSVGGYSGILDPWGQGTLVTVSS
VL: EIVLTQSPATLSLSPGERATLSCRASQSVGSYLAWYQQKPGQAPRLLIYDASERATGIPARFSGSGSGTDFTLTISSLEPEDVAVYYCQQRNNWPPLTFGGGTKVEIK
On to B19, for which, in the test with gB AD-2S1 peptide [5], the Kd amounted to 0.9 nM and the association rate constant (kon) came out at 1.3e+08 M⁻¹ s⁻¹.

B20: TRL345 (antibody, V domains shown)
VH: QVQLVESGGGVVQPGRSLRLSCAASGFTFSDYNMHWVRQAPGKGLEWVAVISIDGTYKYSADSVAGRFSLSRDNSKNTLYLQMNSLRPDDTAIYYCARDGRSVGGFSGILDPWGQGTLVTVSS
VL: EIVMTQSPATLSLSPGDRATLSCRASQSVGSYLAWYQQKPGQAPRLLMYDSSVRATGIPARFSGSGSGTDFTLTISSLEPEDFAVYYCQQRNNWPPLTFGGGTKVEIK
notes: also called MAB345
As for B20, in the test with gB AD-2S1 peptide [1], binding was characterised by a dissociation constant (Kd) of 0.29 nM and the kon was found to be 1.52e+08 M⁻¹ s⁻¹.

B21: TRL345 mAb (antibody, V domains shown)
VH: QVQLVESGGGVVQPGRSLRLSCAASGFTFSDYNMHWVRQAPGKGLEWVAVISIDGTYKYSADSVAGRFSLSRDNSKNTLYLQMNSLRPDDTAIYYCARDGRSVGGFSGILDPWGQGTLVTVSS
VL: EIVMTQSPATLSLSPGDRATLSCRASQSVGSYLAWYQQKPGQAPRLLMYDSSVRATGIPARFSGSGSGTDFTLTISSLEPEDFAVYYCQQRNNWPPLTFGGGTKVEIK
As for B21, in test [2], the “AUC of a 3-point dilution series” value was 152 ± 20.8. Besides, in test [4], the “neutralization IC50 on ARPE epithelial cells” value was under 0.35 µg/mL and the “neutralization IC50 on MRC-5 fibroblasts” value is under 0.25 µg/mL.

B22: MAB313 (antibody, V domains shown)
VH: QVQLVQSGGGVIQPGRSLTLSCAASGFTFSAYSLHWVRQAPGKGLQWVAVISFDGNFKHFADSLRGRFTISRDNSKNRFYLQMNGLRGEDTAVYYCARDGRAVDGFSGILDFWGQGTLVSVSS
VL: EIVMTQSPATLSLSPGERATLSCRASQSVGRYLTWFQQKPGQAPRLLIYDASERATGIPARFSGSGSGTDFTLTISSLEPEDFAVYYCQQRANWPPLTFGGGTKVEIK
Turning to B22, in the test with gB AD-2S1 peptide [5], the Kd was found to be 4.38 nM and the kon was found to be 1.54e+08 M⁻¹ s⁻¹.
